For two proteins, Km and kcat results are on record in PMC8302205.

Substrate in this series: C[N+](C)(C)[C@@H](Cc1cnc[nH]1)C(=O)[O-]
The series can be described thus: purified protein. Type of series: biochemical, Chlorobium limicola. Conditions: 0.116 mM K2Sx, 50 mM KPi pH 8.0, 25 °C.

By Km is commonly meant the substrate concentration at which the rate is half of its maximum. By kcat is commonly meant the maximal rate divided by the concentration of active sites.

Where a chain is given by its changes, count along the chain named. In names and notes the source's numbering stands.

B1: EanB (Chlorobium limicola DSM 245) (protein)
chain: MQNKNFRAPQSEAIGILYKLIETGSKHKNMYDHTEITTDSLLALLGSEKVKIIDVRSADAYNGWRMRGEVRGGHIKGAKSLPAKWLTDPEWLNIVRFKQIRPEDAIVLYGYTPEECEQTATRFKENGYNNVSVFHRFHPDWTGNDAFPMDRLEQYNRLVPAEWVNGLISGEEIPEYDNDTFIVCHAHYRNRDAYLSGHIPGATDMDTLALESPETWNRRTPEELKKALEEHGITASTTVVLYGKFMHPDNADEFPGSAAGHIGAIRLAFIMMYAGVEDVRVLNGGYQSWTDAGFAISKDDVPKTTVPEFGAPIPSRPEFAVDIDEAKEMLQSEDSDLVCVRSYPEYIGEVSGYNYIKKKGRIPGAIFAECGSDAYHMENYRNHDHTTREYHEIEDIWAKSGIIPKKHLAFYCGTGWRGSEAWFNALLMGWPRVSVYDGGWFEWSNDPENPYETGVPK
With B1, the Km turned out to be 69.7 ± 8.7 µM and the kcat worked out at 0.0113 ± 0.00017 s⁻¹.

B2: EanB (Chlorobium limicola DSM 245; C116A/C184A/C339A/C370A) (protein)
chain: B1 chain with C116A, C184A, C339A, C370A
Turning to B2, under “EanB C412-only variant”, the Km came out at 65.9 ± 3.4 µM and the kcat came to 0.0025 ± 0.00017 s⁻¹.
